Reference: publication doi:10.1101/2021.06.02.446795

Target: HMPV nucleoprotein N (strain CAN97-83), full-length, N-RNA rings (human metapneumovirus (strain CAN97-83))
Test: SEC

HMPV nucleoprotein N (strain CAN97-83), full-length, N-RNA rings (natural protein)
stoichiometry N: 10
